According to the supplement of paper PMC5998384:

What was measured:
HeLa Kyoto [1] = assay: solubility change mitosis vs G1/S (difference of NP-40 vs SDS log2 ratios) (log2 ratio difference); higher = more soluble in mitosis
HeLa Kyoto [2] = assay: thermal stability score vs G1/S (z-score of summed log2 fold changes over temperatures); higher = more thermally stable than in G1/S
HeLa Kyoto [3] = assay: solubility in G1/S (NP-40 vs SDS abundance) (log2 ratio); higher = more soluble; settings: cell cycle stage: G1/S
HeLa Kyoto [4] = assay: melting temperature (median over replicates), in situ; higher = more thermally stable
[5] = cell cycle stage: early G1 (4.5 h after nocodazole release)
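Wherever melting temperature (median over replicates), in situ is given: HeLa Kyoto cells synchronized by double thymidine or nocodazole block, proteins quantified by TMT10plex mass spectrometry, three independent biological replicates.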
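Wherever solubility change mitosis vs G1/S (difference of NP-40 vs SDS log2 ratios) is given: synchronized HeLa Kyoto cells (double thymidine block for G1/S, nocodazole release for mitosis), protein amounts in NP-40 versus SDS lysates quantified by mass spectrometry, three biological replicates.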
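Wherever solubility in G1/S (NP-40 vs SDS abundance) is given: HeLa Kyoto cells arrested at G1/S by double thymidine block, proteins quantified by TMT10plex mass spectrometry in mild NP-40 versus SDS extracts, three biological replicates.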
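Wherever thermal stability score vs G1/S (z-score of summed log2 fold changes over temperatures) is given: synchronized HeLa Kyoto cells, proteins quantified by TMT10plex mass spectrometry, three biological replicates, mitosis taken 0.5 h after nocodazole release, G1/S directly after double thymidine block.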

Row | Sequence | solubility change mitosis (log2) (HeLa Kyoto [1]) | thermal stability score (HeLa Kyoto [2]; [5]) | thermal stability score (HeLa Kyoto [2]; cell cycle stage: mitosis) | solubility in G1/S (log2) (HeLa Kyoto [3]) | melting temperature (HeLa Kyoto [4]; cell cycle stage: G1/S) [°C] | melting temperature (HeLa Kyoto [4]; cell cycle stage: mitosis) [°C]
1 | MALLTAAARLLGTKNASCLVLAARHASASSTNLKDILADLIPKEQARIKTFRQQHGKTVVGQITVDMMYGGMRGMKGLVYETSVLDPDEGIRFRGFSIPECQKLLPKAKGGEEPLPEGLFWLLVTGHIPTEEQVSWLSKEWAKRAALPSHVVTMLDNFPTNLHPMSQLSAAVTALNSESNFARAYAQGISRTKYWELIYEDSMDLIAKLPCVAAKIYRNLYREGSGIGAIDSNLDWSHNFTNMLGYTDHQFTELTRLYLTIHSDHEGGNVSAHTSHLVGSALSDPYLSFAAAMNGLAGPLHGLANQEVLVWLTQLQKEVGKDVSDEKLRDYIWNTLNSGRVVPGYGHAVLRKTDPRYTCQREFALKHLPNDPMFKLVAQLYKIVPNVLLEQGKAKNPWPNVDAHSGVLLQYYGMTEMNYYTVLFGVSRALGVLAQLIWSRALGFPLERPKSMSTEGLMKFVDSKSG [CS] | -0.0123 | 1.01 | 0.1 | 0.519 | 52 | 51.9
2 | MALQTLQSSWVTFRKILSHFPEELSLAFVYGSGVYRQAGPSSDQKNAMLDFVFTVDDPVAWHSKNLKKNWSHYSFLKVLGPKIITSIQNNYGAGVYYNSLIMCNGRLIKYGVISTNVLIEDLLNWNNLYIAGRLQKPVKIISVNEDVTLRSALDRNLKSAVTAAFLMLPESFSEEDLFIEIAGLSYSGDFRMVVGEDKTKVLNIVKPNIAHFRELYGSILQENPQVVYKSQQGWLEIDKSPEGQFTQLMTLPKTLQQQINHIMDPPGKNRDVEETLFQVAHDPDCGDVVRLGLSAIVRPSSIRQSTKGIFTAGKSFGNPCVTYLLTEWLPHSWLQCKALYLLGACEMLSFDGHKLGYCSKVQTGITAAEPGGRTMSDHWQCCWKLYCPSEFSETLPVCRVFPSYCFIYQSYRCIGLQKQQHLCSPSSSPSLRQLLPSVLVGYFCCYCHFSKW [TAMM41] | -0.163 | -1.37 | -1.38 | 0.0094 | 52.6 | 52.8
3 | MALRGVSVRLLSRGPGLHVLRTWVSSAAQTEKGGRTQSQLAKSSRPEFDWQDPLVLEEQLTTDEILIRDTFRTYCQERLMPRILLANRNEVFHREIISEMGELGVLGPTIKGYGCAGVSSVAYGLLARELERVDSGYRSAMSVQSSLVMHPIYAYGSEEQRQKYLPQLAKGELLGCFGLTEPNSGSDPSSMETRAHYNSSNKSYTLNGTKTWITNSPMADLFVVWARCEDGCIRGFLLEKGMRGLSAPRIQGKFSLRASATGMIIMDGVEVPEENVLPGASSLGGPFGCLNNARYGIAWGVLGASEFCLHTARQYALDRMQFGVPLARNQLIQKKLADMLTEITLGLHACLQLGRLKDQDKAAPEMVSLLKRNNCGKALDIARQARDMLGGNGISDEYHVIRHAMNLEAVNTYEGTHDIHALILGRAITGIQAFTASK [GCDH] | -0.103 | -0.63 | 1.21 | 0.217 | 54.2 | 54.7
4 | MALSCTLNRYLLLMAQEHLEFRLPEIKSLLLLFGGQFASSQETYGKSPFWILSIPSEDIARNLMKRTVCAKSIFELWGHGQSPEELYSSLKNYPVEKMVPFLHSDSTYKIKIHTFNKTLTQEEKIKRIDALEFLPFEGKVNLKKPQHVFSVLEDYGLDPNCIPENPHNIYFGRWIADGQRELIESYSVKKRHFIGNTSMDAGLSFIMANHGKVKENDIVFDPFVGTGGLLIACAHFGAYVYGTDIDYNTVHGLGKATRKNQKWRGPDENIRANLRQYGLEKYYLDVLVSDASKPSWRKGTYFDAIITDPPYGIRESTRRTGSQKEIPKGIEKWEKCPESHVPVSLSYHLSDMFLDLLNFAAETLVLGGRLVYWLPVYTPEYTEEMVPWHPCLELVSNCEQKLSSHTSRRLITMEKVKKFENRDQYSHLLSDHFLPYQGHNSFREKYFSGVTKRIAKEEKSTQE [TRMT11] | -0.155 | 0.848 | -0.0136 | 0.171 | 54.4 | 53.5
5 | MAMAPSPSLVQVYTSPAAVAVWEWQDGLGTWHPYSATVCSFIEQQFVQQKGQRFGLGSLAHSIPLGQADPSLAPYIIDLPSWTQFRQDTGTMRAVRRHLFPQHSAPGRGVVWEWLSDDGSWTAYEASVCDYLEQQVARGNQLVDLAPLGYNYTVNYTTHTQTNKTSSFCRSVRRQAGPPYPVTTIIAPPGHTGVACSCHQCLSGSRTGPVSGRYRHSMTNLPAYPVPQHPPHRTASVFGTHQAFAPYNKPSLSGARSAPRLNTTNAWGAAPPSLGSQPLYRSSLSHLGPQHLPPGSSTSGAVSASLPSGPSSSPGSVPATVPMQMPKPSRVQQALAGMTSVLMSAIGLPVCLSRAPQPTSPPASRLASKSHGSVKRLRKMSVKGATPKPEPEPEQVIKNYTEELKVPPDEDCIICMEKLSTASGYSDVTDSKAIGSLAVGHLTKCSHAFHLLCLLAMYCNGNKDGSLQCPSCKTIYGEKTGTQPQGKMEVLRFQMSLPGHEDCGTILIVYSIPHGIQGPEHPNPGKPFTARGFPRQCYLPDNAQGRKVLELLKVAWKRRLIFTVGTSSTTGETDTVVWNEIHHKTEMDRNITGHGYPDPNYLQNVLAELAAQGVTEDCLEQQ [DTX2] | -0.253 | 0.67 | 0.769 | 0.0228 | – | 47.4
6 | MAMQKIFAREILDSRGNPTVEVDLHTAKGRFRAAVPSGASTGIYEALELRDGDKGRYLGKGVLKAVENINNTLGPALLQKKLSVVDQEKVDKFMIELDGTENKSKFGANAILGVSLAVCKAGAAEKGVPLYRHIADLAGNPDLILPVPAFNVINGGSHAGNKLAMQEFMILPVGASSFKEAMRIGAEVYHHLKGVIKAKYGKDATNVGDEGGFAPNILENNEALELLKTAIQAAGYPDKVVIGMDVAASEFYRNGKYDLDFKSPDDPARHITGEKLGELYKSFIKNYPVVSIEDPFDQDDWATWTSFLSGVNIQIVGDDLTVTNPKRIAQAVEKKACNCLLLKVNQIGSVTESIQACKLAQSNGWGVMVSHRSGETEDTFIADLVVGLCTGQIKTGAPCRSERLAKYNQLMRIEEALGDKAIFAGRKFRNPKAK [ENO3] | 0.0137 | -0.939 | -1.58 | 0.117 | 55.2 | 56.6
7 | MANEVIKCKAAVAWEAGKPLSIEEIEVAPPKAHEVRIKIIATAVCHTDAYTLSGADPEGCFPVILGHEGAGIVESVGEGVTKLKAGDTVIPLYIPQCGECKFCLNPKTNLCQKIRVTQGKGLMPDGTSRFTCKGKTILHYMGTSTFSEYTVVADISVAKIDPLAPLDKVCLLGCGISTGYGAAVNTAKLEPGSVCAVFGLGGVGLAVIMGCKVAGASRIIGVDINKDKFARAKEFGATECINPQDFSKPIQEVLIEMTDGGVDYSFECIGNVKVMRAALEACHKGWGVSVVVGVAASGEEIATRPFQLVTGRTWKGTAFGGWKSVESVPKLVSEYMSKKIKVDEFVTHNLSFDEINKAFELMHSGKSIRTVVKI [ADH5] | -0.171 | -4.67 | -2.86 | 0.147 | 56.8 | 56.7
8 | MANIAVQRIKREFKEVLKSEETSKNQIKVDLVDENFTELRGEIAGPPDTPYEGGRYQLEIKIPETYPFNPPKVRFITKIWHPNISSVTGAICLDILKDQWAAAMTLRTVLLSLQALLAAAEPDDPQDAVVANQYKQNPEMFKQTARLWAHVYAGAPVSSPEYTKKIENLCAMGFDRNAVIVALSSKSWDVETATELLLSN [UBE2K] | -0.0147 | -2.17 | 0.646 | 0.332 | 53.2 | 53.9
